Measured values reported in US20230093399A1, “METHODS FOR GENERATING PLURIPOTENT STEM CELL-DERIVED BROWN FAT CELLS” (AgeX Therapeutics, Inc., priority 2013, published 2023).

Tests used:
[1] = tested on: cell line E3; assay: Differentiation of clonal hEP cell line E3 in HyStem beads, Illumina microarray gene expression; format: cell-based, human; conditions: E3
Protocol: (§1) Differentiation medium is high glucose DMEM (CellGro Cat. No. 15-013-CV) with Pyruvate, 1 mM (Gibco Cat. 11360), Pen:Strep 100U/ml:100 ug/ml (Gibco Cat. No. 504284), Glutamax 2 mM (Gibco Cat. No. 35050), Dexamethasone 0.1 uM (Sigma, St. Louis, Mo., Cat. No. D1756-100), L-Proline 0.35 mM (Sigma Cat. No. D49752), 2-phospho-L-Ascorbic Acid 0.17 mM (Sigma, Cat. No. 49792, Fluka), and ITS Premix (BD, Franklin Lakes, N.J., sterile Cat. No. 47743-628) with a final concentration 6.25 ug/ml insulin, 6.25 ug/ml transferrin, 6.25 ng/ml selenious acid, serum albumin 1.25 mg/ml, 5.35 ug/ml linoleic acid. In various differentiation conditions, the Differentiation medium is supplemented with various growth factors or other differentiation factors as described herein.
The Gelin-S® component (10 mg of thiol-modified gelatin (BioTime)) is dissolved in 1.0 ml of degassed deionized water to prepare a 1% w/v solution, and polyethylene glycol diacrylate (10 mg of PEGDA) is dissolved in 0.5 ml of degassed deionized water to prepare a 2% w/v solution. Then, HyStem (1 ml, 1% w/v) is mixed with Gelin-S (1 ml, 1% w/v) immediately before use. Pelleted cells are resuspended in the recently prepared HyStem:Gelin-S (1:1 v/v) mix described above. Upon the addition of the PEGDA cross-linker, the cell suspension, at a final concentration of 2.0×10^7 cells/ml is aliquoted (25 μl/aliquot) into six-well plates (Corning® 3516; VWR, PA, USA) after partial gelation. Following complete gelation (20 min), Differentiation Medium is added to each well. Plates were then placed in a humidified incubator at 37° C. with ambient O2 and 10% CO2, and the cells were fed three-times weekly. At the desired time point, hydrogel constructs were either fixed and processed for immunohistochemical analysis or lysed using RLT (Qiagen, CA, USA) with 1% beta-mercaptoethanol for total RNA to analyze transcript expression using quantitative real-time PCR (qRT-PCR) and/or whole-genome microarray.
Total RNA was extracted directly from cells growing in 6-well plates or 10 cm tissue culture dishes using Qiagen RNeasy mini kits according to the manufacturer's instructions. RNA concentrations were measured using a Beckman DU530 or Nanodrop spectrophotometer and RNA quality was determined by denaturing agarose gel electrophoresis or using an Agilent 2100 bioanalyzer. Whole-genome expression analysis was carried out using Illumina Human Ref-8v3 or Human HT-12 v4 BeadArrays, and RNA levels for certain genes were confirmed by qRT-PCR. For the Illumina BeadArrays, total RNA was linearly amplified and biotin-labeled using Illumina TotalPrep kits (Life Technologies, Temecula, Calif., USA), and cRNA was quality-controlled using an Agilent 2100 Bioanalyzer. The cRNA was hybridized to Illumina BeadChips, processed, and read using a BeadStation array reader according to the manufacturer's instructions (Illumina, San Diego, Calif., USA). Values of less than 120 relative fluorescence units (RFUs) were considered as nonspecific background signal.

[2] = tested on: fBAT cells; assay: Differentiation of fBAT preadipocyte cells in HyStem beads, Illumina microarray gene expression; format: cell-based, human; conditions: 14 days HyStem beads, 50 ng/ml BMP4, FIG. 15 sample 2
Protocol: as §1
HyStem-C (BioTime, Inc. Alameda, Calif.) is a matrix composed of thiol-modified gelatin and thiolated hyaluronan crosslinked in vivo or in vitro with (polyethylene glycol diacrylate (PEGDA). We observed that clonal human embryonic progenitor cell lines such as those described in the present invention, could be efficiently differentiated in high-density cultures of said crosslinked collagen and hyaluronate in the following manner. HyStem-C® (BioTime, CA, USA) is reconstituted following the manufacturer's instructions. Briefly, the HyStem component (10 mg of thiol-modified hyaluronan) is dissolved in 1.0 ml of degassed deionized water for approximately 20 min to prepare a 1% w/v solution. […] At the desired time point, hydrogel constructs were either fixed and processed for immunohistochemical analysis or lysed using RLT (Qiagen, CA, USA) with 1% beta-mercaptoethanol for total RNA to analyze transcript expression using quantitative real-time PCR (qRT-PCR) and/or whole-genome microarray.
Total RNA was extracted directly from cells growing in 6-well plates or 10 cm tissue culture dishes using Qiagen RNeasy mini kits according to the manufacturer's instructions. […] Values of less than 120 relative fluorescence units (RFUs) were considered as nonspecific background signal. […]

B1: BMP4: Bone Morphogenetic Protein 4, TGF-beta superfamily member (protein, UniProt P12644 293-408, looked up)
Bone morphogenetic protein 4: SPKHHSQRARKKNKNCRRHSLYVDFSDVGWNDWIVAPPGYQAFYCHGDCPFPLADHLNSTNHAIVQTLVNSVNSSIPKACCVPTELSAISMLYLDEYDKVVLKNYQEMVVEGCGCR
expression of C19ORF80 transcript ([1]; HyStem beads supplemented with 10 ng/ml BMP4, FIG. 2): highest expression | PCK1 transcript expression ([1]; HyStem beads with 10 ng/ml BMP4 or 100 ng/ml BMP7, FIG. 5): relatively high levels | ADIPOQ expression [2]: markedly up-regulating | C19ORF80 expression [2]: markedly up-regulating | UCP1 expression [2]: low or undetectable level
